Tests used:
IL-10R = molecular target: T1, IL-10R (Homo sapiens, UniProt Q13651); test: IL-10R immunofluorescence microscopy; type: cell-based; details: MDA-MB-231 cells, 100 ng/ml, 15 min
T1 construct: uninfected tumor cells express the IL-10R complex; endogenous in cells; host or cells: MDA-MB-231 human breast cancer cells
T1 sequence (Q13651 22-578): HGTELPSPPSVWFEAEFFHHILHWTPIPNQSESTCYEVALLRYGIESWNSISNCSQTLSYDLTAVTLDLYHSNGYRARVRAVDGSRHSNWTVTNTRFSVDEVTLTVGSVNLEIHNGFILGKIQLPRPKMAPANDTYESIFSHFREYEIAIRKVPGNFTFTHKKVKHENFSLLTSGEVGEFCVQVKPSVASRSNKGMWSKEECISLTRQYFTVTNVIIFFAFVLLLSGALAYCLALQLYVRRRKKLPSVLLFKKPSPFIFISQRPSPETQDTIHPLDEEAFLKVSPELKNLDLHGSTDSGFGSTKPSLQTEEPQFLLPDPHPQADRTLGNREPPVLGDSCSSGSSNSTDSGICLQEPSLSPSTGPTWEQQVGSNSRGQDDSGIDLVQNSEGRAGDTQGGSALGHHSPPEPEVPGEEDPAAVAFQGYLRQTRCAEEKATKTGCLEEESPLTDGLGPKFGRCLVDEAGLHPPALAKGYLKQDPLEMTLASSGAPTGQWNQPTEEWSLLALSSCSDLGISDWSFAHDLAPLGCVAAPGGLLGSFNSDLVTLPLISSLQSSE
T1 sequence (Q08334 20-325 partner): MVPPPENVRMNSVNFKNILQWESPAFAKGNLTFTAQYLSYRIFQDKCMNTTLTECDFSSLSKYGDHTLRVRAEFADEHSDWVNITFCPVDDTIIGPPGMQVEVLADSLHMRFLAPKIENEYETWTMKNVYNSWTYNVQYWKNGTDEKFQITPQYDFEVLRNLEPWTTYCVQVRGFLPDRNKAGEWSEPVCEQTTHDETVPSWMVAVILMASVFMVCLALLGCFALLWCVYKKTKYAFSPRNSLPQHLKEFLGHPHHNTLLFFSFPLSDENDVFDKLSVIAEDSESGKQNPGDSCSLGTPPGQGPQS
Protocol: MDA-MB-231 cells were seeded into 6-well dishes containing FBS-coated glass coverslips at a density of 2×10^5 cells per well and then incubated for 48 hrs at 37° C. Cell monolayers were washed with PBS, fixed with 4% paraformaldehyde, then permeabilized with 0.2% (w/v) Triton X-100 followed by treatment with ice cold 50% methanol-50% acetone for 30 min. Cells were then blocked with PBS+10% FBS for 1 hr at 37° C. and stained with anti-IL-10Rα antibody (Santa Cruz Biotechnology) at a 1:100 dilution for 1 hr at 37° C. Following three PBS washes, the coverslips were incubated with TRITC-conjugated secondary antibody for 1 hr, washed again, and then mounted on a glass slide using Prolong Gold anti-fade reagent with DAPI (Life Technologies, Grand Island, N.Y.). HFF cells were also grown on coverslips as described, mock- or virus-infected, and stained with anti-IE1 (EMD Millipore) followed by FITC-conjugated secondary antibody. Images were acquired using a Zeiss LSM700 laser scanning confocal microscope using Zen Black software (Carl Zeiss, Inc., Oberkochen, Germany).

MDA-MB-231 cells = test: Matrigel invasion toward EGF; type: cell-based, human; details: 100 ng/ml, 22 hours
Protocol: Transwell migration was monitored using 96-well BD Fluoroblock plates with 8 μm filters (Corning, Inc., Corning, N.Y.). Cells were harvested and suspended at density of 2.0×10^6 cells/ml in migration media (L-15+1% FBS), and a volume of 75 μl cell suspension was placed on top of the filter inserts. Where indicated, IL-10R neutralizing antibody was added at a concentration of 30 μg/ml. […] After 5 hrs at 37° C., cells that traversed the filter and entered the lower chamber were quantified by the addition of Cell Titer Glo (Promega, Madison, Wis.) using a Turner Veritas luminometer. For invasion, 96-well matrigel-coated BD Fluoroblock transwell invasion plates (Corning) were used. Invasion plates were re-hydrated with warm media at 37° C. for 3 hrs and then 75 μl cell suspension loaded onto the hydrated filters as described above. Where indicated, 10 μM Stat3 inhibitor was included with cells in the top chamber; cmvIL-10, hIL-10 or conditioned medium was present in both chambers. […] At harvest, cells that had degraded the matrigel and entered the lower chamber were quantified by the addition of Cell Titer Glo as above.

B1: cmvIL-10 (protein)
chain: ATTTTIKNTKPQCRPEDYATRLQDLRVTFHRVKPTLQREDDYSVWLDGTVVKGCWGCSVMDWLLRRYLEIVFPAGDHVYPGLKTELHSMRSTLESIYKDMRQCPLLGCGDKSVISRLSQEAERKSDNGTRKGLSELDTLFSRLEEYLHSRK
IL-10R distribution after treatment (IL-10R): distinct redistribution of IL-10R
invasion through matrigel compared with hIL-10 (MDA-MB-231 cells): significantly greater extent than hIL-10
invasion through matrigel toward EGF (MDA-MB-231 cells): strong enhancer of cell invasion

Reference: US20180128830A1, “DETECTION OF HUMAN CYTOMEGALOVIRUS IN BREAST CANCER” (priority 2015, published 2018)
